Publication PMC10989752, “LipR functions as an intracellular pH regulator in Bacillus thuringiensis under glucose conditions”

Target: T1, LipR (Bacillus thuringiensis BMB171, UniProt A0A0G3DYA8 1-337)
T1 sequence: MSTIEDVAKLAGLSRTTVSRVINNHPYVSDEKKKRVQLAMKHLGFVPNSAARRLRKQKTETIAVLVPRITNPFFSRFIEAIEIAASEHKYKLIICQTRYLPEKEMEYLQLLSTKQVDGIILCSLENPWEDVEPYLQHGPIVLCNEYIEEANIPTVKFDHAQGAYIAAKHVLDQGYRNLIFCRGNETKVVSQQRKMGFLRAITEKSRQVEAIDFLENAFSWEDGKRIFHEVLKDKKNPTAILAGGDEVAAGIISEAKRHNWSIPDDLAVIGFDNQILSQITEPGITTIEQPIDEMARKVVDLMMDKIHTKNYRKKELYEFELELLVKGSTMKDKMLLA
Assay: EMSA; LipR: 25 mM Tris pH 8.5-9, 150 mM NaCl, 10% glycerol; CcpA/AbrB: 50 mM Tris-HCl pH 7.5, 10 mM MgCl2, 1 mM DTT, 100 mM NaCl; 28 C, 25 min, 10 ul; 500 ng poly(dI-dC) when needed; 6% native PAGE, 0.5x TBE
Conditions: protein: recombinant, tags: C-terminal His (pET-28a), chain copies: 2

B1: 30-bp footprint fragment (dsDNA)
DNA 1: ATATAATCAATTTAAGAAAACGTTTTCATG
DNA 2: CATGAAAACGTTTTCTTAAATTGATTATAT
binding result: binds

B2: 18-bp minimal LipR site (dsDNA)
DNA 1: TAAGAAAACGTTTTCATG
DNA 2: CATGAAAACGTTTTCTTA
binding result (blunt): binds

B3: D6 (dsDNA)
DNA 1: CAATTTAAGAAAACGTTTTCATG
DNA 2: CATGAAAACGTTTTCTTAAATTG
binding result: binds
